Data: patent publication US20230001013A1, “STABLE MONOMERIC INSULIN FORMULATIONS ENABLED BY SUPRAMOLECULAR PEGYLATION OF INSULIN ANALOGUES” (THE BOARD OF TRUSTEES OF THE LELAND STANFORD JUNIOR …, priority 2019, published 2023)
pKd: −log10 of the molar value.

Key:
[1] = Insulin association state by SEC-MALS; assay type: physicochemical; conditions: for monomer / number average molecular weight (MW): zinc-free
Excerpt: Excipient choice is important, because as in the case of Apidra (glulisine), the absence of zinc is not sufficient to result in an ultra-fast acting insulin formulation. To engineer an insulin formulation that promotes the monomer state, the effects of excipients on insulin association state under zinc-free conditions must be understood. Characterization by size exclusion chromatography with multiple angle light scattering (SEC-MALS) allows us to determine insulin molecular weight in formulation and estimate the fraction of hexamers, dimers and monomers under formulation conditions. […] To select for a mostly monomeric insulin formulation, we evaluated the effect of tonicity agents and preservatives on insulin association state.
Number-averaged molecular weight (MW) and dispersity (Ð=Mw/Mn) of formulations were obtained using size exclusion chromatography (SEC) carried out using a Dionex Ultimate 3000 instrument (including pump, autosampler, and column compartment) outfitted with a Dawn Heleos II Multi Angle Ligh Scattering detector, and a Optilab rEX refractive index detector. The column was a Superose 6 Increase 10/300 GL from GE healthcare. Data was analyzed using Astra 6.0 software.
Controls consisted of either (v) commercial Humalog formulation comprising glycerol (1.6%), meta-cresol (0.315%), dibasic sodium phosphate (0.188%), and zinc (0.00197%), or (vi) commercial Novolog formulation comprising glycerol (1.6%), meta-cresol (0.172%), phenol (0.15%), sodium chloride (0.058%), dibasic sodium phosphate (0.125%), and zinc (0.00196%). Insulin lispro and aspart were injected at a concentration of a minimum […] protein and a volume of 100 μL. A do/dc of 0.186 mL/g was used for all samples.
The molar fraction of monomeric, dimeric and hexameric insulin was determined by fitting experimentally derived number-averaged (Mn) and weight-averaged (Mw) molecular weights determined by SEC-MALS to Equation 1 and Equation 2, where m, d and h, respectively, represent the molar fractions of monomeric, dimeric and hexameric insulin while I represents the molecular weight of monomeric insulin (5831 g/mol). The solver was constrained so that m+d+h=1 while m, d and h remain between 0 and 1.

[2] = reported previously; cited from earlier work
insulin aspart = insulin aspart (Homo sapiens, UniProt P01308, P52D); assay: Acridine orange dye displacement competitive binding assay; conditions: unmodified CB[7], AO displacement, one-site competitive binding model; read-out: binding affinity
Protocol: Unmodified CB[7] was purchased from Strem Chemicals and Acridine Orange (AO) was purchased from Sigma-Aldrich. Binding of CB[7] to aspart was assessed using the AO dye displacement assay, as previously described. Briefly, 6 μM of CB[7] and 8 μM AO were combined with 100 μL of aspart samples. Aspart samples were diluted to concentrations of 0, 0.01, 0.1, 0.3, 0.5, 1, 1.5, 2, 3, 4 μm in H2O. Samples were incubated overnight in light-free conditions, and fluorescent spectra were collected on an BioTek SynergyH1 microplate reader, exciting at 485 nm and collecting the resulting fluorescent spectra from 495 to 650 nm. The decay in the peak of AO fluorescent signal was fit to a one-site competitive binding model (GraphPad Prism, version 6.0), using the CB[7]·AO equilibrium constant reported previously (Keq=2×10^5 M^−1), to determine binding constants of unmodified CB[7] to insulin.

[3] = target: N-terminal phenylalanine on insulin (Homo sapiens, UniProt P01308); assay: Host-guest binding of CB[7]-PEG to insulin
Protocol: Referring to FIGS. 1A and 1B, existing insulin formulations contain a mixture of hexamers, dimers and monomers, which, upon subcutaneous injection, dissociate and are absorbed at different rates, shown diagrammatically in FIG. 1A. Non-covalent PEGylation is enabled by the strong specific binding between CB[7]-PEG and the N-terminal phenylalanine on insulin (KD=0.5 μM). Under high concentrations in formulation insulin will be greater than 98% bound, but after dilution upon subcutaneous injection less than 1% of CB[7]-PEG will remain associated with insulin. This differential absorption results in the rapid onset but long duration of action of these formulations, as indicated in the activity curve in FIG. 1B. […] The formulations described herein are directed to this objective.

[4] = phosphate buffer (pH=7.4), glycerol (2.6%)
[5] = phosphate buffer (pH=7.4), sodium chloride (0.9%)
[6] = phosphate buffer, glycerol (2.6%) and meta-cresol (0.315%)
[7] = phosphate buffer, glycerol (2.6%) and phenoxyethanol (0.85%)

Substance	monomer [1, 4] [%]	number average molecular weight (MW) [1, 4] [kDa]	monomer [1, 5] [%]	number average molecular weight (MW) [1, 5] [kDa]	monomer [1, 6] [%]	number average molecular weight (MW) [1, 6] [kDa]	monomer [1, 7] [%]	number average molecular weight (MW) [1, 7] [kDa]	also measured
Zinc free insulin: zinc free insulin in pure water									association state ([1]; in pure water): completely monomeric
cucurbit[7]uril [CB[7]]									Keq [2]: 200000 M⁻¹; pKd (insulin aspart): 6.27
cucurbit[7]uril-poly(ethylene glycol) [CB[7]-PEG]									pKd [3]: 6.30; CB[7]-PEG remaining associated with insulin ([3]; after dilution following subcutaneous administration): less than 1%; fraction bound (CB[7]-PEG/insulin complex) ([3]; typical (high) formulation concentrations): greater than 98%
insulin aspart	91.4	7.4	4.8	13	71.0	9.4	85.2	7.4	
insulin lispro	89.2	7.6	55.0	8.7	56.7	9.0	71.5	8.2	
